According to IntAct's records for PubMed 27978489:

B1: T-cell immunoreceptor with Ig and ITIM domains (Homo sapiens), Q495A1 (parent)
chain: MRWCLLLIWAQGLRQAPLASGMMTGTIETTGNISAEKGGSIILQCHLSSTTAQVTQVNWEQQDQLLAICNADLGWHISPSFKDRVAPGPGLGLTLQSLTVNDTGEYFCIYHTYPDGTYTGRIFLEVLESSVAEHGARFQIPLLGAMAATLVVICTAVIVVVALTRKKKALRIHSVEGDLRRKSAGQEEWSPSAPSPPGSCVQAEAAPAGLCGEQRGEDCAELHDYFNVLSYRSLGNCSFFTETG

Variants of: B1
Conditions: with nect2_human NECTIN2, Q92692
Sequence of nect2_human NECTIN2, Q92692 (Q92692 whole entry): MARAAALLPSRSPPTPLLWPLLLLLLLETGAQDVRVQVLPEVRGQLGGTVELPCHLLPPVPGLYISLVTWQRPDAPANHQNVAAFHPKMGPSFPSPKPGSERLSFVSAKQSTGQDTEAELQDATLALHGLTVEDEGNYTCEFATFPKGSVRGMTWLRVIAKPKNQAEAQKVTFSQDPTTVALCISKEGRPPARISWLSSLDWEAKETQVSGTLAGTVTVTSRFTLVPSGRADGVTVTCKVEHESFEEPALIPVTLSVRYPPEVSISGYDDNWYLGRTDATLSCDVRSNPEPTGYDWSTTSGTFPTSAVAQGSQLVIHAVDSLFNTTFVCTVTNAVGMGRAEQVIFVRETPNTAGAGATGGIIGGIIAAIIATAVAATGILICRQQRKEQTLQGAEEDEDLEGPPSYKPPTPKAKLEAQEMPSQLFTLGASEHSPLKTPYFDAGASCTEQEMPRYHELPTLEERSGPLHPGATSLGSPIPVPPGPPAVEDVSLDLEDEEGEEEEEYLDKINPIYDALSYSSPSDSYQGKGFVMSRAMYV

Variant | effect of a mutation on the interaction
MRWCLLLIWAQGLRQAPLASGMMTGTIETTGNISAEKGGSIILQCHLSSTTAQVTQVNWEQQDQLLAICNADLGWHISPSFKDRVAPGPGLGLTLQSLTVNDTGEYFCIYHTAPDGTYTGRIFLEVLESSVAEHGARFQIPLLGAMAATLVVICTAVIVVVALTRKKKALRIHSVEGDLRRKSAGQEEWSPSAPSPPGSCVQAEAAPAGLCGEQRGEDCAELHDYFNVLSYRSLGNCSFFTETG [Y113A] | decreasing interaction strength
MRWCLLLIWAQGLRQAPLASGMMTGTIETTGNISAEKGGSIILQCHLSSTTAQVTQVNWEQQDQLLAICNADLGWHISPSFKDRVAPGPGLGLTLQSLTVNDTGEYFCIYHAYPDGTYTGRIFLEVLESSVAEHGARFQIPLLGAMAATLVVICTAVIVVVALTRKKKALRIHSVEGDLRRKSAGQEEWSPSAPSPPGSCVQAEAAPAGLCGEQRGEDCAELHDYFNVLSYRSLGNCSFFTETG [T112A] | decreasing interaction strength
MRWCLLLIWAQGLRQAPLASGMMTGTIETTGNISAEKGGSIILQCHLSSTTAQVTQVNWEQQDQLLAICNADLGWHISPSFKDRVAPGPGLGLTLQSLTVNDTGEYFCIYHTYADGTYTGRIFLEVLESSVAEHGARFQIPLLGAMAATLVVICTAVIVVVALTRKKKALRIHSVEGDLRRKSAGQEEWSPSAPSPPGSCVQAEAAPAGLCGEQRGEDCAELHDYFNVLSYRSLGNCSFFTETG [P114A] | decreasing interaction strength
